Reference: the supplement of paper PMC7125110
± gives the standard error. Variants at the floor of the assay were thinned out.

B1: glmS ribozyme (parent)
chain: AUAAAAGCGCCAGAACUACAGAAAUGUAGUUGACGAGGAGGAGGUUUAUCGAAUUUUCGGCGGAUGCCUCCAAA

What was measured:
Conditions in all cases: with glucosamine-6-phosphate
glucosamine-6-phosphate [1] = variants of: B1; assay: self-cleavage kobs at 40 uM GlcN6P; higher = faster cleavage; RNA array
Outline: (§1)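 Weighted Michaelis–Menten fits across concentrations supplied kcat and KM, based on kobs from one- or two-exponential decay fits to normalised per-tile medians. The data came from barcoded ribozyme variants transcribed in situ by E. coli RNA polymerase on sequenced MiSeq chips and tracked at 37 °C by a hybridised Cy3 probe. Glucosamine-6-phosphate (40 μM to 10 mM) in HEPES/KCl/Mg(OAc)2 buffer was flowed in.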

glucosamine-6-phosphate [2] = variants of: B1; assay: self-cleavage kobs at 160 uM GlcN6P; higher = faster cleavage; RNA array
Outline: as §1

glucosamine-6-phosphate [3] = variants of: B1; assay: self-cleavage kobs at 640 uM GlcN6P; higher = faster cleavage; RNA array
Outline: as §1

glucosamine-6-phosphate [4] = variants of: B1; assay: self-cleavage kobs at 2500 uM GlcN6P; higher = faster cleavage; RNA array
Outline: as §1

glucosamine-6-phosphate [5] = variants of: B1; assay: self-cleavage kobs at 10000 uM GlcN6P; higher = faster cleavage; RNA array
Outline: as §1

G41C C68G
self-cleavage kobs at 40 uM GlcN6P (glucosamine-6-phosphate [1]): < 1e-05 s⁻¹ | self-cleavage kobs at 160 uM GlcN6P (glucosamine-6-phosphate [2]): < 1e-05 s⁻¹ | self-cleavage kobs at 640 uM GlcN6P (glucosamine-6-phosphate [3]): < 1e-05 s⁻¹ | self-cleavage kobs at 2500 uM GlcN6P (glucosamine-6-phosphate [4]): < 1e-05 s⁻¹ | self-cleavage kobs at 10000 uM GlcN6P (glucosamine-6-phosphate [5]): < 1e-05 s⁻¹

A48G G59U
self-cleavage kobs at 40 uM GlcN6P (glucosamine-6-phosphate [1]): < 1e-05 s⁻¹

U45G U69A
self-cleavage kobs at 40 uM GlcN6P (glucosamine-6-phosphate [1]): 0.000333 ± 8.4e-05 s⁻¹ | self-cleavage kobs at 2500 uM GlcN6P (glucosamine-6-phosphate [4]): 0.000589 ± 0.00025 s⁻¹ | self-cleavage kobs at 10000 uM GlcN6P (glucosamine-6-phosphate [5]): 0.000362 ± 7.9e-05 s⁻¹

U46A A48C
self-cleavage kobs at 40 uM GlcN6P (glucosamine-6-phosphate [1]): < 1e-05 s⁻¹

U30A A52C
self-cleavage kobs at 40 uM GlcN6P (glucosamine-6-phosphate [1]): < 1e-05 s⁻¹ | self-cleavage kobs at 160 uM GlcN6P (glucosamine-6-phosphate [2]): < 1e-05 s⁻¹ | self-cleavage kobs at 640 uM GlcN6P (glucosamine-6-phosphate [3]): < 1e-05 s⁻¹ | self-cleavage kobs at 2500 uM GlcN6P (glucosamine-6-phosphate [4]): < 1e-05 s⁻¹ | self-cleavage kobs at 10000 uM GlcN6P (glucosamine-6-phosphate [5]): < 1e-05 s⁻¹

G62U C67G
self-cleavage kobs at 40 uM GlcN6P (glucosamine-6-phosphate [1]): < 1e-05 s⁻¹ | self-cleavage kobs at 640 uM GlcN6P (glucosamine-6-phosphate [3]): < 1e-05 s⁻¹ | self-cleavage kobs at 10000 uM GlcN6P (glucosamine-6-phosphate [5]): < 1e-05 s⁻¹

A14G G21U C67U
self-cleavage kobs at 40 uM GlcN6P (glucosamine-6-phosphate [1]): 0.000937 ± 0.00021 s⁻¹

G51C A52G
self-cleavage kobs at 40 uM GlcN6P (glucosamine-6-phosphate [1]): < 1e-05 s⁻¹ | self-cleavage kobs at 160 uM GlcN6P (glucosamine-6-phosphate [2]): < 1e-05 s⁻¹ | self-cleavage kobs at 2500 uM GlcN6P (glucosamine-6-phosphate [4]): < 1e-05 s⁻¹ | self-cleavage kobs at 10000 uM GlcN6P (glucosamine-6-phosphate [5]): < 1e-05 s⁻¹

G37C G44U U46G C71G
self-cleavage kobs at 40 uM GlcN6P (glucosamine-6-phosphate [1]): < 1e-05 s⁻¹

A6C G44C
self-cleavage kobs at 40 uM GlcN6P (glucosamine-6-phosphate [1]): < 1e-05 s⁻¹ | self-cleavage kobs at 160 uM GlcN6P (glucosamine-6-phosphate [2]): < 1e-05 s⁻¹ | self-cleavage kobs at 640 uM GlcN6P (glucosamine-6-phosphate [3]): < 1e-05 s⁻¹ | self-cleavage kobs at 10000 uM GlcN6P (glucosamine-6-phosphate [5]): < 1e-05 s⁻¹

G9A C58G
self-cleavage kobs at 40 uM GlcN6P (glucosamine-6-phosphate [1]): < 1e-05 s⁻¹ | self-cleavage kobs at 160 uM GlcN6P (glucosamine-6-phosphate [2]): < 1e-05 s⁻¹ | self-cleavage kobs at 640 uM GlcN6P (glucosamine-6-phosphate [3]): < 1e-05 s⁻¹ | self-cleavage kobs at 2500 uM GlcN6P (glucosamine-6-phosphate [4]): < 1e-05 s⁻¹

A14U G43U G51U
self-cleavage kobs at 40 uM GlcN6P (glucosamine-6-phosphate [1]): < 1e-05 s⁻¹ | self-cleavage kobs at 2500 uM GlcN6P (glucosamine-6-phosphate [4]): < 1e-05 s⁻¹

A12U U54A
self-cleavage kobs at 40 uM GlcN6P (glucosamine-6-phosphate [1]): 0.00273 ± 0.00049 s⁻¹ | self-cleavage kobs at 160 uM GlcN6P (glucosamine-6-phosphate [2]): 0.00304 ± 0.00084 s⁻¹ | self-cleavage kobs at 640 uM GlcN6P (glucosamine-6-phosphate [3]): 0.0221 ± 0.0044 s⁻¹ | self-cleavage kobs at 2500 uM GlcN6P (glucosamine-6-phosphate [4]): 0.0233 ± 0.0078 s⁻¹ | self-cleavage kobs at 10000 uM GlcN6P (glucosamine-6-phosphate [5]): 0.121 ± 0.059 s⁻¹

C8U A48C
self-cleavage kobs at 40 uM GlcN6P (glucosamine-6-phosphate [1]): < 1e-05 s⁻¹ | self-cleavage kobs at 640 uM GlcN6P (glucosamine-6-phosphate [3]): < 1e-05 s⁻¹ | self-cleavage kobs at 10000 uM GlcN6P (glucosamine-6-phosphate [5]): < 1e-05 s⁻¹

A6U G35U
self-cleavage kobs at 40 uM GlcN6P (glucosamine-6-phosphate [1]): < 1e-05 s⁻¹ | self-cleavage kobs at 160 uM GlcN6P (glucosamine-6-phosphate [2]): < 1e-05 s⁻¹ | self-cleavage kobs at 640 uM GlcN6P (glucosamine-6-phosphate [3]): < 1e-05 s⁻¹ | self-cleavage kobs at 2500 uM GlcN6P (glucosamine-6-phosphate [4]): < 1e-05 s⁻¹ | self-cleavage kobs at 10000 uM GlcN6P (glucosamine-6-phosphate [5]): < 1e-05 s⁻¹

A39C C50G U55C
self-cleavage kobs at 40 uM GlcN6P (glucosamine-6-phosphate [1]): < 1e-05 s⁻¹ | self-cleavage kobs at 10000 uM GlcN6P (glucosamine-6-phosphate [5]): < 1e-05 s⁻¹

A14G A33U G43A
self-cleavage kobs at 40 uM GlcN6P (glucosamine-6-phosphate [1]): < 1e-05 s⁻¹ | self-cleavage kobs at 10000 uM GlcN6P (glucosamine-6-phosphate [5]): < 1e-05 s⁻¹

G40A G41C A48C C68A C70U
self-cleavage kobs at 40 uM GlcN6P (glucosamine-6-phosphate [1]): < 1e-05 s⁻¹ | self-cleavage kobs at 10000 uM GlcN6P (glucosamine-6-phosphate [5]): < 1e-05 s⁻¹

C10G G13A
self-cleavage kobs at 40 uM GlcN6P (glucosamine-6-phosphate [1]): < 1e-05 s⁻¹ | self-cleavage kobs at 160 uM GlcN6P (glucosamine-6-phosphate [2]): < 1e-05 s⁻¹ | self-cleavage kobs at 640 uM GlcN6P (glucosamine-6-phosphate [3]): < 1e-05 s⁻¹

A14C G29A A33U
self-cleavage kobs at 40 uM GlcN6P (glucosamine-6-phosphate [1]): < 1e-05 s⁻¹ | self-cleavage kobs at 160 uM GlcN6P (glucosamine-6-phosphate [2]): < 1e-05 s⁻¹ | self-cleavage kobs at 2500 uM GlcN6P (glucosamine-6-phosphate [4]): < 1e-05 s⁻¹

A14G U55G
self-cleavage kobs at 40 uM GlcN6P (glucosamine-6-phosphate [1]): 0.00161 ± 0.00014 s⁻¹ | self-cleavage kobs at 160 uM GlcN6P (glucosamine-6-phosphate [2]): 0.00404 ± 0.00073 s⁻¹ | self-cleavage kobs at 640 uM GlcN6P (glucosamine-6-phosphate [3]): 0.00984 ± 0.0012 s⁻¹ | self-cleavage kobs at 2500 uM GlcN6P (glucosamine-6-phosphate [4]): 0.00953 ± 0.0023 s⁻¹ | self-cleavage kobs at 10000 uM GlcN6P (glucosamine-6-phosphate [5]): 0.0589 ± 0.011 s⁻¹

U45A G59U C70G
self-cleavage kobs at 40 uM GlcN6P (glucosamine-6-phosphate [1]): < 1e-05 s⁻¹ | self-cleavage kobs at 10000 uM GlcN6P (glucosamine-6-phosphate [5]): < 1e-05 s⁻¹
